From publication PMC3099715 (The Journal of Biological Chemistry, 2011)
Where two headings read alike, the source gives them in different places. No end group written: not given here. fluorescein = fluorescein fluorophore covalently attached to the cysteine residue

Legend:
[1] = target: fluorescein-labeled P5 peptide (F-P5) (chicken); test: fluorescence polarisation
[2] = target: fluorescein-labeled Isu1 peptide (F-Isu1) (S. cerevisiae); test: fluorescence polarisation
[3] = target: fluorescein-labeled P5 peptide (F-P5) (chicken); test: fluorescence polarisation; remark: listed apart in the source
[4] = target: T1, Ssc1 (mitochondrial heat shock protein 70 of Saccharomyces cerevisiae) (S. cerevisiae, UniProt P0CS90 24-654); test: fluorescence polarisation
[5] = target: T2, substrate-binding domain of Ssc1, Ssc1(418–654) (S. cerevisiae, UniProt P0CS90 418-654); test: fluorescence polarisation
T2 sequence (looked up): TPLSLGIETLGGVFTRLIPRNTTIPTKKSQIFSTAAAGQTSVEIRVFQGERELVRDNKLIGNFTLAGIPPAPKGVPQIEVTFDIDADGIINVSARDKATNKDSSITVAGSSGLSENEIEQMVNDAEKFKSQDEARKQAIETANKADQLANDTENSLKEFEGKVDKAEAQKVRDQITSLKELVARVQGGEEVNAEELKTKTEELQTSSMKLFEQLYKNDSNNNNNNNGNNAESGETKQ

[6] = target: T1, Ssc1 (mitochondrial heat shock protein …); test: fluorescence polarisation; remark: listed apart in the source
[7] = target: T1, Ssc1 (mitochondrial heat shock protein …); test: fluorescence polarisation; remark: listed apart in the source
[8] = target: T1, Ssc1 (mitochondrial heat shock protein …); test: fluorescence polarisation; remark: listed apart in the source
[9] = target: T1, Ssc1 (mitochondrial heat shock protein …); test: pull-down

For “SBD_(Ssc1)-(ABCD)_(Ssc3) chimera (variable domain of the SBD of Ssc1 replaced with that of Ssc3) (domain or fragment)”, the Kd [1] was 22.7 µM.

In the case of “Ssc3 (mitochondrial Hsp70 paralog of Saccharomyces cerevisiae) (natural protein)”, the Kd [2] is reported as greater than 90 µM, the Kd [1] is reported as 30.1 µM and the koff [1] is reported as 0.244 s⁻¹. For the same molecule, the Kd [3] was 26.3 µM.

CALLLSAPRR (fluorescein fluorophore covalently attached to the cysteine residue) [fluorescein-labeled P5 peptide (F-P5)] gave a Kd [4] of 30.9 ± 2.6 µM, a Kd [5] of 0.264 ± 0.041 µM and a koff [6] of 0.003 s⁻¹. For the same molecule, the Kd [7] was 0.231 ± 0.014 µM.

LSLPPVKLHC(fluorescein) [fluorescein-labeled Isu1 peptide (F-Isu1)] was tested, and the Kd [8] was 7.07 ± 0.872 µM.

B1: GST-Hep1 (yeast Hep1 co-chaperone) (natural protein, yeast (S. cerevisiae), UniProt P42844 48-174, looked up)
chain: NEVKKDDKKVHLGSFKVDKPKMMIAFTCKKCNTRSSHTMSKQAYEKGTVLISCPHCKVRHLIADHLKIFHDHHVTVEQLMKANGEQVSQDVGDLEFEDIPDSLKDVLGKYAKNNSENASQLPHPSQK
Work on B1 yielded a Kd [9] of roughly 1.5 µM.
